Target: GST-F2F3 (GST fusion of CPSF30 zinc fingers F2F3, amino acids 61-121) (UniProt P08515 1-218 = GST)

B1: M186 mutant NS1A protein (other)
chain: MDSNTVSSFQVDCFLWHVRKQVVDQELGDAPFLDRLRRDQKSLRGRGSTLGLNIEAATHVGKQIVEKILKEESDEALKMTMASTPASRYITDMTIEELSRDWFMLMPKQKVEGPLCIRIDQAIMDKNIMLKANFSVIFDRLETLILLRAFTEEGAIVGEISPLPSFPGHTIEDVKNAIGVLIGRFLRYDNTVRVSKTLQRFAWGSSNENGRPPLTPKQKRKMARTARSKVRRDKMAD
modifications: 35S-methionine label (in vitro translated)
B1: no binding.
